Changes are numbered by the printed parent chain. Names may count otherwise.

Consider four proteins from publication PMC6384963, “The β-N-Acetylhexosaminidase in the Synthesis of Bioactive Glycans: Protein and Reaction Engineering” (Molecules, 2019).

Substrate in data set [1]: CC(=O)N[C@H]1[C@H](Oc2ccc([N+](=O)[O-])cc2)O[C@H](CO)[C@@H](O)[C@@H]1O
Put plainly: purified protein. In kind it is biochemical, Talaromyces flavus. To be noted: McIlvaine buffer pH 5.0, 25 °C, hydrolysis.

Substrate in data set [2]: CC(=O)N[C@H]1[C@H](Oc2ccc([N+](=O)[O-])cc2)O[C@H](CO)[C@H](O)[C@@H]1O
Put plainly: purified protein. The format is biochemical, Talaromyces flavus. As to conditions: McIlvaine buffer pH 5.0, 25 °C, hydrolysis.

B1: TfHex (β-N-acetylhexosaminidase from Talaromyces flavus) (Talaromyces flavus; Y470N) (protein)
chain: VAVNPLPAPRSITWGTSGPISVPHNVDVKLPKNAIINDAWERAWTSIKQLRWVPQATEAPISSYEPFPTVAPTSASTASSTPLPSSSAAAVAARSQKRGHQKGSHEKRGHSQSTLRTVTVTVSDLNADLQAEVDESYTLVLDSGSSTLAITANTTWGALHAFTTLQQLVIYQDNSLIIEQPVHIEDSPLYPWRGVMIDTGRNFITVPKIKEQIDGMALSKLNILHWHLDDSQSWPVHMDTYPQMTNDAYSPWQTYSHEDIKDIIEYARARAVRVVPEVDMPGHSAAGWQQVDPSIVACAHSWWSNDNWPYHTAVEPTPGQLDPLNNKTYGVVEKVYNELSGIFTDDFFHVGGDELQTGCYNFSTYVSDYLAADPSRTYNDVTQYWVDHAFPIFKKIQNRKLVIWEDLIINNPHAPNVSTENLLVQSWNNGLTNINNLTNLGYDVLVSSSDFMNLDCGYGGFVTNDPRYDVMVNPDAVDGLANFNWGGNGGSWCAPYKTWQRIYDYDFTTNLTDAQAAHVKGAVAPLWSEQVDDTVISGKMWPRAAALAELVWSGNKDPKTGDKRTTYMTQRILNFREYLVANGVQAAPLVPKYCLQHPHSCDLYYDQTAVV
notes: secreted from Pichia pastoris KM71H, pPICZαA vector; purified by cation-exchange chromatography
On to B1, for which, in the data set “purified protein [1]”, the Michaelis constant (Km) amounted to 890 ± 130 µM, the kcat is 11.6 ± 0.6 s⁻¹ and the specificity constant (kcat/Km) was determined as 13000 M⁻¹ s⁻¹. Besides, in “purified protein [2]”, the Michaelis-Menten constant (Km) stood at 890 ± 90 µM, the catalytic constant (kcat) was found to be 0.35 ± 0.01 s⁻¹ and the catalytic efficiency (kcat/Km) stood at 400 M⁻¹ s⁻¹.

B2: TfHex (β-N-acetylhexosaminidase from Talaromyces flavus) (Talaromyces flavus; Y470H) (protein)
chain: B1 chain with N453H
notes: as for B1
B2: in the data set “purified protein [1]”, the Km was found to be 53 ± 8 µM, the turnover number (kcat) was determined as 0.67 ± 0.02 s⁻¹ and the catalytic efficiency (kcat/Km) was found to be 13000 M⁻¹ s⁻¹. In the data set “purified protein [2]”, the Michaelis-Menten constant (Km) was 350 ± 30 µM, the turnover number (kcat) is 0.188 ± 0.004 s⁻¹ and the kcat/Km is 530 M⁻¹ s⁻¹.

B3: TfHex (β-N-acetylhexosaminidase from Talaromyces flavus) (Talaromyces flavus) (protein)
chain: B1 chain with N453Y
notes: as for B1
For the protein B3, in “purified protein [1]”, the Michaelis constant (Km) came to 110 ± 20 µM, the kcat stood at 47 ± 1 s⁻¹ and the kcat/Km was determined as 434000 M⁻¹ s⁻¹. In addition, in “purified protein [2]”, the Michaelis constant (Km) stood at 690 ± 90 µM, the turnover number (kcat) amounted to 104 ± 5 s⁻¹ and the kcat/Km amounted to 150000 M⁻¹ s⁻¹.

B4: TfHex (β-N-acetylhexosaminidase from Talaromyces flavus) (Talaromyces flavus; Y470F) (protein)
chain: B1 chain with N453F
notes: as for B1
Turning to B4, in the data set “purified protein [1]”, the Km worked out at 23 ± 8 µM, the kcat was found to be 0.27 ± 0.01 s⁻¹ and the kcat/Km stood at 12000 M⁻¹ s⁻¹. In addition, in “purified protein [2]”, the Km was determined as 50 ± 5 µM, the kcat stood at 0.166 ± 0.003 s⁻¹ and the kcat/Km turned out to be 3300 M⁻¹ s⁻¹.
